# Test results as given in patent US20240376185A1 (SMIVET B V, published 2024).
# Where a chain is given by its changes, count along the chain named. In names and notes the source's numbering stands.
# B1: SVT16-L123Q-GS2-SVG13M4-H6 (bispecific antibody)
# chain: QVQLQESGGGSVQAGDSLRLSCAASGRTISNYAMGWFRQAPGKQREFVAAISRSDNTYYTDSVKGRFTISRDNAKNTLYLQMNSLKPEETAVYYCAADPNLMYESKWKYRALEAWGQGTQVTVSSGGGGSGGGSEVQLVESGGGLVQPGGSLRLSCEASGFTFDDYGMSWVRQAPGKGLEWVSSLTPNGGSTYYADSVKGRFTISRDNAKNTLYLQMNSLKPEDTALYYCAKNSYYGAMDYWGQGTQVTVSSHHHHHH
# B2: SVT20L-L123Q (VHH)
# VHH: QVQLQQSGGGLVQAGGSLRLSCAASGRTMSSYAMGWFRQAPGKQREFVAAISRSGGNTYYTDSVKGRFTISRDNAKNTLYLQMNSLKPEETAVYYCAADPNLMYESKWKYRALEAWGQGTQVTVSS
# B3: SVT34L-L123Q (VHH)
# VHH: B2 VHH with Q6E, A14P, M29I, T69I, S85N
# B4: SVT06-GS3-SVT16-L123Q-GS2-SVA12M2-H6 (bispecific antibody)
# chain: QVQLQESGGGSVQAGGSLRLSCTASELSYDDYTIAWFRRAAGEGRVEDGEGVASITKSYDRAYDNKINYGHSVKGRFTISRDNAKNTVYLQMTDLLPSDTAVYYCALDITPPGGVGASLTEGFLFDYWGQGTQVTVSSGGGGSGGGGSGGGGSQVQLQESGGGSVQAGDSLRLSCAASGRTISNYAMGWFRQAPGKQREFVAAISRSDNTYYTDSVKGRFTISRDNAKNTLYLQMNSLKPEETAVYYCAADPNLMYESKWKYRALEAWGQGTQVTVSSGGGGSGGGSEVQLVESGGGLVQAGGSLRLSCAASGRTFSYYPMAWFRQAPGQEREFVAAIIGADTTYYADSLKGRFTISRDNAKNMVYLQMNSLKPEDTAVYYCAARNTYWSDVYYREGQYTNWGQGTQVTVSSHHHHHH
# B5: SVT16-L123Q-GS2-SVA12M2-H6 (bispecific antibody)
# chain: QVQLQESGGGSVQAGDSLRLSCAASGRTISNYAMGWFRQAPGKQREFVAAISRSDNTYYTDSVKGRFTISRDNAKNTLYLQMNSLKPEETAVYYCAADPNLMYESKWKYRALEAWGQGTQVTVSSGGGGSGGGSEVQLVESGGGLVQAGGSLRLSCAASGRTFSYYPMAWFRQAPGQEREFVAAIIGADTTYYADSLKGRFTISRDNAKNMVYLQMNSLKPEDTAVYYCAARNTYWSDVYYREGQYTNWGQGTQVTVSSHHHHHH
# B6: SVT06-SVT16-L123Q-GS2-SVG13M4-H6 (bispecific antibody)
# chain: QVQLQESGGGSVQAGGSLRLSCTASELSYDDYTIAWFRRAAGEGRVEDGEGVASITKSYDRAYDNKINYGHSVKGRFTISRDNAKNTVYLQMTDLLPSDTAVYYCALDITPPGGVGASLTEGFLFDYWGQGTQVTVSSQVQLQESGGGSVQAGDSLRLSCAASGRTISNYAMGWFRQAPGKQREFVAAISRSDNTYYTDSVKGRFTISRDNAKNTLYLQMNSLKPEETAVYYCAADPNLMYESKWKYRALEAWGQGTQVTVSSGGGGSGGGSEVQLVESGGGLVQPGGSLRLSCEASGFTFDDYGMSWVRQAPGKGLEWVSSLTPNGGSTYYADSVKGRFTISRDNAKNTLYLQMNSLKPEDTALYYCAKNSYYGAMDYWGQGTQVTVSSHHHHHH
# Columns and labels:
# [1] = target: T1, tetanus neurotoxin (TeNT), authentic tetanus holotoxin (Clostridium tetani, UniProt P04958 2-1315)
# [2] = target: T1, tetanus neurotoxin (TeNT), authentic …; experiment: cell-based or functional assay
# [3] = target: tetanus neurotoxin (TeNT), authentic tetanus holotoxin (Clostridium tetani, UniProt P04958 2-1315); remark: listed apart in the source
# [4] = target: Tetanus neurotoxin (TeNT), authentic tetanus holotoxin (Clostridium tetani, UniProt P04958 2-1315)
Binder,Kd [1] [nM],koff [1] [s⁻¹],kon [1] [M⁻¹ s⁻¹],Endpoint dilution factor [2],SDA concentration providing full protection [2] [nM],IC50 [3] [µg/mL],also measured
B1,0.227,0.000184,665000,< 1,> 1000,,
B2,,,,,,0.038,
B3,,,,,,0.034,
B4,0.0133,1.32e-05,989000,> 32,3.1,,Potency IU/mg [2]: > 93.1 IU/mg
B5,0.224,0.000199,886000,,,,
B6,,,,,,,Kd [4]: 0.0159 nM; koff [4]: 6.61e-06 s⁻¹; kon [4]: 417000 M⁻¹ s⁻¹
